Experimental data reported in the supplement of paper PMC7877785.
± gives the uncertainty stated by the source.

Test: self-splicing fitness, log relative to wild type (ln ratio); higher = more splicing; Tetrahymena group I intron in knt gene, E. coli kanamycin selection, DiMSum; sequences stand for … in CUCUCU…GGAGGGAAAAGUUAUCAGGCAUGCACCUGGUAGCUAGUCUUUAAACCAAUAGAUUGCAUCGGUUUAAAAGGCAAGACCGUCAAAUUGCGGGAAAGGGGUCAACAGCCGUUCAGUACCAAGUCUCAGGGGAAACUUUGAGAUGGCCUUGCAAAGGGUAUGGUAAUAAGCUGACGGACAUGGUCCUAACCACGCAGCCAAGUCCUAAGUCAACAGAUCUUCUGUUGAUAUGGAUGCAGUUCACAGACUAAAUGUCGGUCGGGGAAGAUGUAUUCUUCUCAUAAGAUAUAGUCGGACCUCUCCUUAAUGGGAGCUAGCGGAUGAAGUGAUGCAACACUGGAGCCGCUGGGAACUAAUUUGUAUGCGAAAGUAUAUUGAUUAGUUUUGGAGUACUCGUGGUCG
In short: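 Library with all eight P1ex-region intron nucleotides randomised, intron inside the knt kanamycin-resistance gene on pET-22b(+), in E. coli BL21(DE3). Cells grew overnight at 37°C or 30°C on LB agar with or without 25 μg/mL kanamycin (plus 100 μg/mL carbenicillin, 50 μM IPTG, 0.2% rhamnose), in six replicate transformations. Pooled colonies were amplicon-sequenced on Illumina HiSeq 2500. DiMSum fitness is the error-weighted combination of wild-type-normalised replicate fold changes, kanamycin versus none.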

Row | Sequence | self-splicing fitness (ln) (30 °C) | self-splicing fitness (ln) (37 °C)
1 | GGUUAGCAAUAUUACGUAGG | -2.51 ± 0.18 | -1.03 ± 0.14
2 | CCAAAGCAAUAUUACGCCGA | -2.83 ± 0.18 | -3.4 ± 0.23
3 | CAGUAGCAAUAUUACGUCGA | -3.45 ± 0.25 | -1.49 ± 0.17
4 | CGUCAGCAAUAUUACGUUCA | -1.26 ± 0.082 | -0.74 ± 0.087
5 | AGGAAGCAAUAUUACGCCAU | -3.16 ± 0.27 | -2 ± 0.38
6 | AGAGAGCAAUAUUACGUUGC | -2.89 ± 0.23 | -2.89 ± 0.32
7 | AUCCAGCAAUAUUACGCGGG | -3.37 ± 0.13 | -2.42 ± 0.17
8 | GUUAAGCAAUAUUACGAGGA | -1.5 ± 0.23 | -1.15 ± 0.39
9 | CCCGAGCAAUAUUACGCUGC | -2.93 ± 0.21 | -2.63 ± 0.3
10 | UUGCAGCAAUAUUACGGAGG | -2.94 ± 0.16 | -2.73 ± 0.24
11 | CCUCAGCAAUAUUACGAUAA | -2.82 ± 0.16 | -3.35 ± 0.32
12 | CUUGAGCAAUAUUACGAUGU | -2.24 ± 0.14 | -3.43 ± 0.26
13 | CAUCAGCAAUAUUACGUGCG | -0.149 ± 0.056 | 0.355 ± 0.075
14 | GAACAGCAAUAUUACGAAUA | -1.48 ± 0.098 | -0.755 ± 0.11
15 | GUAGAGCAAUAUUACGACUU | -0.172 ± 0.081 | 0.104 ± 0.1
16 | GCUUAGCAAUAUUACGCAAG |  | -2.44 ± 0.34
17 | CACCAGCAAUAUUACGUCUG | -1.55 ± 0.056 | -0.504 ± 0.07
18 | AGAGAGCAAUAUUACGAAUA |  | -0.719 ± 0.49
19 | CCACAGCAAUAUUACGCAUU | -3.53 ± 0.17 | -3.11 ± 0.16
20 | GGCCAGCAAUAUUACGCAUC | -0.0388 ± 0.15 | 0.0683 ± 0.16
21 | UAUCAGCAAUAUUACGGGAC | -3.15 ± 0.22 | -2.26 ± 0.25
22 | ACGCAGCAAUAUUACGGACA | -1.29 ± 0.13 | -1.13 ± 0.14
23 | AUUUAGCAAUAUUACGAUAA | -1.53 ± 0.2 | -0.502 ± 0.39
24 | CUUGAGCAAUAUUACGAUAA | -3.27 ± 0.31 | -0.951 ± 0.37
25 | AAACAGCAAUAUUACGGUUG | -1.99 ± 0.061 | -0.629 ± 0.075

Row | Sequence | self-splicing fitness (ln) (30 °C) | self-splicing fitness (ln) (37 °C)
26 | CGGUAGCAAUAUUACGACAA | -2 ± 0.21 | 0.305 ± 0.1
27 | GCACAGCAAUAUUACGCUUG | -2.89 ± 0.12 | -1.39 ± 0.11
28 | CACCAGCAAUAUUACGAGGA | -2.74 ± 0.14 | -1.91 ± 0.13
29 | AUCAAGCAAUAUUACGCGCA | -0.314 ± 0.073 | 0.448 ± 0.098
30 | GUAAAGCAAUAUUACGCGCU | -1.4 ± 0.075 | -0.523 ± 0.096
31 | UGCCAGCAAUAUUACGAACA | -0.458 ± 0.14 | 0.334 ± 0.17
32 | UGAAAGCAAUAUUACGGGUA | -1.01 ± 0.1 | -0.387 ± 0.097
33 | AAAGAGCAAUAUUACGGCAA | -3.23 ± 0.36 | -1.58 ± 0.19
34 | UCUUAGCAAUAUUACGAUAG | -1.77 ± 0.17 | -1.63 ± 0.16
35 | UCUCAGCAAUAUUACGUGAA | -1.14 ± 0.082 | 0.314 ± 0.1
36 | AUGGAGCAAUAUUACGACGA |  | 0.0911 ± 0.24
37 | CGCCAGCAAUAUUACGAUGC | -3.51 ± 0.38 | -1.75 ± 0.2
38 | GAAUAGCAAUAUUACGAUGA | -1.2 ± 0.083 | -0.62 ± 0.093
39 | UCGCAGCAAUAUUACGUUUA | -1.78 ± 0.12 | -1.11 ± 0.11
40 | ACACAGCAAUAUUACGGAUG | -1.54 ± 0.058 | -0.668 ± 0.084
41 | AUCAAGCAAUAUUACGACGG | -3.8 ± 0.14 | -2.67 ± 0.15
42 | UCCUAGCAAUAUUACGCCUU | -2.98 ± 0.33 | -2.34 ± 0.35
43 | CUACAGCAAUAUUACGGCUC | -3.53 ± 0.23 | -1.8 ± 0.31
44 | CGGUAGCAAUAUUACGAAAU | -2.91 ± 0.21 | -3.07 ± 0.37
45 | CUCUAGCAAUAUUACGAACC | -3.06 ± 0.37 | 
46 | UCUGAGCAAUAUUACGGCUU | -2.02 ± 0.32 | -2.34 ± 0.32
47 | GCUGAGCAAUAUUACGCGUU | -2.22 ± 0.15 | -1.73 ± 0.22
48 | AUCAAGCAAUAUUACGAGCA | -1.3 ± 0.075 | -0.375 ± 0.076
49 | GUCUAGCAAUAUUACGGGGC |  | -2.34 ± 0.36
50 | UACUAGCAAUAUUACGCCUC | -2.28 ± 0.24 | -1.78 ± 0.28

Row | Sequence | self-splicing fitness (ln) (30 °C) | self-splicing fitness (ln) (37 °C)
51 | ACAAAGCAAUAUUACGCAUC | -3.49 ± 0.21 | -1.74 ± 0.2
52 | UUUCAGCAAUAUUACGGUCG | -0.269 ± 0.074 | 0.418 ± 0.11
53 | UUGGAGCAAUAUUACGUCUG | -2.66 ± 0.17 | -0.914 ± 0.22
54 | CGCUAGCAAUAUUACGAUGG | -0.85 ± 0.075 | 0.251 ± 0.083
55 | AUGAAGCAAUAUUACGCCCA | 0.226 ± 0.22 | 0.0745 ± 0.25
56 | ACAAAGCAAUAUUACGUUCU | -0.539 ± 0.055 | -0.567 ± 0.065
57 | GUAAAGCAAUAUUACGACUA | -0.649 ± 0.097 | -0.957 ± 0.11
58 | UCUGAGCAAUAUUACGCUGC | -2.24 ± 0.37 | -1.46 ± 0.34
59 | GGAAAGCAAUAUUACGUUUG | -3.17 ± 0.26 | -1.79 ± 0.25
60 | UACCAGCAAUAUUACGAGUU | -1.28 ± 0.073 | -0.876 ± 0.076
61 | CACAAGCAAUAUUACGUUAU | -2.95 ± 0.098 | -2.7 ± 0.11
62 | AGCCAGCAAUAUUACGCACG | -2.34 ± 0.11 | -0.605 ± 0.12
63 | UCCUAGCAAUAUUACGACCA | -0.552 ± 0.22 | -2.28 ± 0.35
64 | GACCAGCAAUAUUACGUCCG | -4.09 ± 0.27 | -2.12 ± 0.17
65 | UUGAAGCAAUAUUACGCGCU | -1.72 ± 0.093 | -1 ± 0.13
66 | GUAUAGCAAUAUUACGUGCG | -1.4 ± 0.12 | -0.66 ± 0.15
67 | CGUAAGCAAUAUUACGGGCA | -3.24 ± 0.23 | -1.09 ± 0.14
68 | AGGAAGCAAUAUUACGUACC | -0.353 ± 0.12 | -0.748 ± 0.16
69 | GCACAGCAAUAUUACGAAAC | -0.701 ± 0.088 | -0.265 ± 0.12
70 | AUCUAGCAAUAUUACGCAUA | -2.4 ± 0.18 | -1.69 ± 0.15
71 | AACGAGCAAUAUUACGCUCG | -2.55 ± 0.35 | 
72 | UGAUAGCAAUAUUACGGUCU | -0.913 ± 0.12 | -0.257 ± 0.15
73 | GCCCAGCAAUAUUACGUGCC | -3.75 ± 0.32 | -3.18 ± 0.2
74 | CCCCAGCAAUAUUACGUAGA | -2.95 ± 0.12 | -2.7 ± 0.18
75 | GUCUAGCAAUAUUACGAUUU | -0.743 ± 0.056 | 0.36 ± 0.064

Row | Sequence | self-splicing fitness (ln) (30 °C) | self-splicing fitness (ln) (37 °C)
76 | CCUAAGCAAUAUUACGUGAU | -4.46 ± 0.23 | -2.71 ± 0.21
77 | ACCUAGCAAUAUUACGUCCC | -1.37 ± 0.26 | 
78 | GGACAGCAAUAUUACGGCGC | 0.0232 ± 0.12 | 0.203 ± 0.13
79 | ACUUAGCAAUAUUACGGGCA | -1.04 ± 0.091 | 0.0835 ± 0.096
80 | AUAUAGCAAUAUUACGCCGU | -0.99 ± 0.24 | -0.413 ± 0.19
81 | CCCCAGCAAUAUUACGCGAA | -4.21 ± 0.15 | -1.69 ± 0.14
82 | GAGGAGCAAUAUUACGGAUU | -3.61 ± 0.18 | -1.95 ± 0.17
83 | AUUGAGCAAUAUUACGCUCU | -3.63 ± 0.24 | -2.27 ± 0.17
84 | UGGUAGCAAUAUUACGUCUG | -0.683 ± 0.11 | 0.409 ± 0.17
85 | GCCUAGCAAUAUUACGCGCU | -2.19 ± 0.13 | -0.269 ± 0.11
86 | AGGAAGCAAUAUUACGAGUC | -2.85 ± 0.35 | -1.61 ± 0.27
87 | GAUUAGCAAUAUUACGGAGG | -2.45 ± 0.18 | -1.81 ± 0.17
88 | CGGUAGCAAUAUUACGUCGA | -2.09 ± 0.23 | -0.214 ± 0.16
89 | GGAGAGCAAUAUUACGUCGU | -2.89 ± 0.21 | -2.5 ± 0.27
90 | AGCUAGCAAUAUUACGCGCG | -0.92 ± 0.18 | -0.121 ± 0.17
91 | CCGAAGCAAUAUUACGUGCC | -2.83 ± 0.29 | -2.64 ± 0.44
92 | AAGGAGCAAUAUUACGUUGC | -4.58 ± 0.42 | -1.71 ± 0.23
93 | GGGUAGCAAUAUUACGGAGU | -2.36 ± 0.22 | -1.21 ± 0.2
94 | AUCCAGCAAUAUUACGUAAG | -1.59 ± 0.065 | -0.715 ± 0.087
95 | UAUGAGCAAUAUUACGUACU | -4.19 ± 0.42 | -1.09 ± 0.41
96 | CGGAAGCAAUAUUACGUCGU |  | -2.21 ± 0.36
97 | UUGUAGCAAUAUUACGCAUA | -1.81 ± 0.16 | -1.31 ± 0.15
98 | UUUAAGCAAUAUUACGCUAC | -3.5 ± 0.32 | 
